# Article PMC11865311
# Biological target: CD11b (alpha subunit of the Mac-1 receptor, CD11b/CD18) (human (endogenous in neutrophils)) (UniProt P11215)
substance,measurement,value
Candida albicans secreted aspartyl protease 6 (Sap6) (from UniProt Q5AC08 19-418) (enzyme),"ROS production after PMA in neutrophils incubated with Sap6 1200 ng/ml with CD11b blocked by an antibody, relative to PMA-stimulated control neutrophils (50% without the blockade)",85%
